This data set relates to Escherichia coli TOP10. The experiment in a line: shrunken log2 fold change of peptide-encoding DNA abundance (4.5 h post-induction vs induction); higher = less antimicrobial activity (less host growth inhibition). The conditions noted are these: time post-induction: 4.5 h; library: site-saturation at positions 5, 18, 19, 20.

Experimental findings from the supplement of paper PMC9112550, “Optimization of the antimicrobial peptide Bac7 by deep mutational scanning” (BMC Biology, 2022) are described below.
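Further: peptides expressed intracellularly from a pBAD plasmid library in pooled LB shake-flask culture, induced with 0.3% L-arabinose, DNA abundance read by NGS, three biological replicates, DESeq2 with apeglm shrinkage.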

Take RRIRKRPPRLPRPRPRPMPRPRP: the “shrunken log2 fold change” value is 0.276.

With RRIRPRPPRLPRPRPRPMNYPRP, the “shrunken log2 fold change” value was -0.736.

As for RRIRYRPPRLPRPRPRPTTTPRP, the “shrunken log2 fold change” value was -0.00235.

RRIRVRPPRLPRPRPRPCNNPRP: the “shrunken log2 fold change” value stood at 0.0786.

Consider RRIRQRPPRLPRPRPRPWIGPRP, for which the “shrunken log2 fold change” value is -0.013.

RRIRERPPRLPRPRPRPTIFPRP: the “shrunken log2 fold change” value was -0.0972.

In the case of RRIRARPPRLPRPRPRPDHIPRP, the “shrunken log2 fold change” value was -0.126.

Turning to RRIRNRPPRLPRPRPRPCFFPRP, the “shrunken log2 fold change” value is -0.489.

As to RRIRRRPPRLPRPRPRPFGSPRP, the “shrunken log2 fold change” value was -0.0013.

On to RRIRKRPPRLPRPRPRPMGPPRP, for which the “shrunken log2 fold change” value amounted to 0.339.

As for RRIRGRPPRLPRPRPRPHMTPRP, the “shrunken log2 fold change” value worked out at 1.45.

For RRIRVRPPRLPRPRPRPCWEPRP, the “shrunken log2 fold change” value was -0.0578.

RRIRHRPPRLPRPRPRPPYLPRP: the “shrunken log2 fold change” value is -0.321.

In the case of RRIRVRPPRLPRPRPRPTIIPRP, the “shrunken log2 fold change” value is -0.479.

Take RRIRVRPPRLPRPRPRPHLLPRP: the “shrunken log2 fold change” value is -0.272.

With RRIRVRPPRLPRPRPRPNMTPRP, the “shrunken log2 fold change” value is -0.256.

Regarding RRIRARPPRLPRPRPRPTGTPRP, the “shrunken log2 fold change” value is 0.363.

Take RRIRNRPPRLPRPRPRPFVDPRP: the “shrunken log2 fold change” value was -0.725.

For the sequence RRIRWRPPRLPRPRPRPLLDPRP, the “shrunken log2 fold change” value was 0.0164.

With RRIRYRPPRLPRPRPRPLQLPRP, the “shrunken log2 fold change” value was -1.13.

RRIRSRPPRLPRPRPRPFRLPRP: the “shrunken log2 fold change” value was -0.793.

Consider RRIRHRPPRLPRPRPRPPWMPRP, for which the “shrunken log2 fold change” value was determined as 0.197.

Turning to RRIRLRPPRLPRPRPRPYKCPRP, the “shrunken log2 fold change” value is -0.0222.

With RRIRGRPPRLPRPRPRPSYRPRP, the “shrunken log2 fold change” value was -0.144.

In the case of RRIRARPPRLPRPRPRPKFAPRP, the “shrunken log2 fold change” value is 0.306.

In the case of RRIRYRPPRLPRPRPRPFHSPRP, the “shrunken log2 fold change” value was -0.0599.

Turning to RRIRRRPPRLPRPRPRPFKGPRP, the “shrunken log2 fold change” value amounted to 0.0185.

For the sequence RRIRWRPPRLPRPRPRPKDTPRP, the “shrunken log2 fold change” value was -0.145.

Regarding RRIRWRPPRLPRPRPRPDSGPRP, the “shrunken log2 fold change” value was -0.0735.

As to RRIRGRPPRLPRPRPRPDPRPRP, the “shrunken log2 fold change” value turned out to be 0.716.

On to RRIRVRPPRLPRPRPRPNLSPRP, for which the “shrunken log2 fold change” value was -0.444.

On to RRIRCRPPRLPRPRPRPLQYPRP, for which the “shrunken log2 fold change” value was -0.0878.

On to RRIRYRPPRLPRPRPRPVYSPRP, for which the “shrunken log2 fold change” value was 4.05.

In the case of RRIRIRPPRLPRPRPRPVASPRP, the “shrunken log2 fold change” value is -0.14.

In the case of RRIRNRPPRLPRPRPRPHGFPRP, the “shrunken log2 fold change” value was found to be 0.0815.

Turning to RRIRLRPPRLPRPRPRPSIQPRP, the “shrunken log2 fold change” value is -1.1.

With RRIRQRPPRLPRPRPRPEISPRP, the “shrunken log2 fold change” value was determined as 0.139.

Turning to RRIRARPPRLPRPRPRPIPWPRP, the “shrunken log2 fold change” value was 0.313.

RRIRGRPPRLPRPRPRPTYWPRP: the “shrunken log2 fold change” value was 0.186.

With RRIRWRPPRLPRPRPRPDQCPRP, the “shrunken log2 fold change” value came out at 0.25.

As to RRIRQRPPRLPRPRPRPYKHPRP, the “shrunken log2 fold change” value was -0.161.

With RRIRMRPPRLPRPRPRPADDPRP, the “shrunken log2 fold change” value is -0.00235.

On to RRIRWRPPRLPRPRPRPYLYPRP, for which the “shrunken log2 fold change” value is -0.216.

Turning to RRIRKRPPRLPRPRPRPGVSPRP, the “shrunken log2 fold change” value worked out at 0.497.

On to RRIRNRPPRLPRPRPRPAVDPRP, for which the “shrunken log2 fold change” value came out at 0.0455.

For RRIRNRPPRLPRPRPRPPASPRP, the “shrunken log2 fold change” value amounted to 0.486.

RRIRHRPPRLPRPRPRPHYNPRP: the “shrunken log2 fold change” value is -1.11.

RRIRIRPPRLPRPRPRPQTIPRP: the “shrunken log2 fold change” value is -0.337.

For RRIRKRPPRLPRPRPRPRECPRP, the “shrunken log2 fold change” value is -0.0199.

For RRIRMRPPRLPRPRPRPNNRPRP, the “shrunken log2 fold change” value was -0.0376.

RRIRTRPPRLPRPRPRPAQEPRP: the “shrunken log2 fold change” value was -0.00523.

RRIRNRPPRLPRPRPRPDWHPRP: the “shrunken log2 fold change” value is -0.394.

For RRIRWRPPRLPRPRPRPNGNPRP, the “shrunken log2 fold change” value amounted to 0.0106.

RRIRCRPPRLPRPRPRPNSSPRP: the “shrunken log2 fold change” value is -0.366.

With RRIRFRPPRLPRPRPRPDCPPRP, the “shrunken log2 fold change” value is -0.364.

As for RRIRRRPPRLPRPRPRPNLQPRP, the “shrunken log2 fold change” value is -0.07.

For RRIRWRPPRLPRPRPRPQWRPRP, the “shrunken log2 fold change” value was -0.0345.

In the case of RRIRARPPRLPRPRPRPHDTPRP, the “shrunken log2 fold change” value was determined as 0.111.

As for RRIRHRPPRLPRPRPRPHQQPRP, the “shrunken log2 fold change” value is 0.0121.

Take RRIRARPPRLPRPRPRPNIEPRP: the “shrunken log2 fold change” value was 0.0171.

Consider RRIRTRPPRLPRPRPRPADLPRP, for which the “shrunken log2 fold change” value was 0.0274.

With RRIRVRPPRLPRPRPRPMWFPRP, the “shrunken log2 fold change” value was -0.0469.

In the case of RRIRGRPPRLPRPRPRPGLCPRP, the “shrunken log2 fold change” value was found to be 0.957.

Consider RRIRWRPPRLPRPRPRPADGPRP, for which the “shrunken log2 fold change” value turned out to be 0.0472.

As to RRIRYRPPRLPRPRPRPHMWPRP, the “shrunken log2 fold change” value was -0.621.

For RRIRNRPPRLPRPRPRPAQCPRP, the “shrunken log2 fold change” value was -0.0739.

Consider RRIRKRPPRLPRPRPRPITQPRP, for which the “shrunken log2 fold change” value was -0.00651.

RRIRTRPPRLPRPRPRPSIMPRP: the “shrunken log2 fold change” value is -0.827.

For RRIRWRPPRLPRPRPRPSPNPRP, the “shrunken log2 fold change” value came out at 0.106.

In the case of RRIRWRPPRLPRPRPRPGAEPRP, the “shrunken log2 fold change” value was determined as 1.17.

For RRIRWRPPRLPRPRPRPPWNPRP, the “shrunken log2 fold change” value is 0.279.

Consider RRIRRRPPRLPRPRPRPRPYPRP, for which the “shrunken log2 fold change” value is 1.17.

On to RRIRERPPRLPRPRPRPALCPRP, for which the “shrunken log2 fold change” value is 0.0446.

On to RRIRMRPPRLPRPRPRPWKVPRP, for which the “shrunken log2 fold change” value is -0.0135.

For the sequence RRIRGRPPRLPRPRPRPEIKPRP, the “shrunken log2 fold change” value worked out at 1.24.

Turning to RRIRCRPPRLPRPRPRPWGWPRP, the “shrunken log2 fold change” value was 0.221.

As for RRIRQRPPRLPRPRPRPPKHPRP, the “shrunken log2 fold change” value was -0.142.

For the sequence RRIRQRPPRLPRPRPRPQLTPRP, the “shrunken log2 fold change” value is -0.405.

For RRIRDRPPRLPRPRPRPVFVPRP, the “shrunken log2 fold change” value was 0.225.

As to RRIRTRPPRLPRPRPRPCFYPRP, the “shrunken log2 fold change” value is -0.351.

As to RRIRLRPPRLPRPRPRPWVHPRP, the “shrunken log2 fold change” value is -0.3.

For the sequence RRIRLRPPRLPRPRPRPTHRPRP, the “shrunken log2 fold change” value worked out at 0.101.

On to RRIRQRPPRLPRPRPRPLGFPRP, for which the “shrunken log2 fold change” value was 0.0916.

On to RRIRVRPPRLPRPRPRPEHAPRP, for which the “shrunken log2 fold change” value came to 0.0467.

Regarding RRIRSRPPRLPRPRPRPCNWPRP, the “shrunken log2 fold change” value is -0.128.

Consider RRIRTRPPRLPRPRPRPKQRPRP, for which the “shrunken log2 fold change” value was determined as 0.166.

Take RRIRHRPPRLPRPRPRPPPKPRP: the “shrunken log2 fold change” value was 0.906.

On to RRIRSRPPRLPRPRPRPHSYPRP, for which the “shrunken log2 fold change” value is -0.171.

On to RRIRTRPPRLPRPRPRPLLWPRP, for which the “shrunken log2 fold change” value was determined as 0.223.

As for RRIRQRPPRLPRPRPRPYFTPRP, the “shrunken log2 fold change” value was -0.818.

Take RRIRMRPPRLPRPRPRPWHFPRP: the “shrunken log2 fold change” value was found to be 0.201.

Take RRIRKRPPRLPRPRPRPALEPRP: the “shrunken log2 fold change” value was -0.108.

As for RRIRDRPPRLPRPRPRPPYPPRP, the “shrunken log2 fold change” value was determined as 0.109.

Turning to RRIRERPPRLPRPRPRPWWFPRP, the “shrunken log2 fold change” value came out at 0.137.

For the sequence RRIRYRPPRLPRPRPRPALEPRP, the “shrunken log2 fold change” value is -0.486.

RRIRQRPPRLPRPRPRPMQSPRP: the “shrunken log2 fold change” value stood at 0.108.

On to RRIRHRPPRLPRPRPRPRIRPRP, for which the “shrunken log2 fold change” value is -0.00948.

For RRIRWRPPRLPRPRPRPISPPRP, the “shrunken log2 fold change” value was -0.887.

As to RRIRMRPPRLPRPRPRPWASPRP, the “shrunken log2 fold change” value was found to be 0.0142.

In the case of RRIRLRPPRLPRPRPRPLYHPRP, the “shrunken log2 fold change” value is -0.648.

For RRIRYRPPRLPRPRPRPSCNPRP, the “shrunken log2 fold change” value was -1.43.

In the case of RRIRCRPPRLPRPRPRPHKEPRP, the “shrunken log2 fold change” value is -0.334.

Consider RRIRARPPRLPRPRPRPGASPRP, for which the “shrunken log2 fold change” value came to 0.978.

For the sequence RRIRVRPPRLPRPRPRPRYNPRP, the “shrunken log2 fold change” value is -0.381.

For RRIRQRPPRLPRPRPRPQHKPRP, the “shrunken log2 fold change” value was -0.205.

Consider RRIRYRPPRLPRPRPRPQSKPRP, for which the “shrunken log2 fold change” value was -0.607.

For the sequence RRIRKRPPRLPRPRPRPEWWPRP, the “shrunken log2 fold change” value is 0.0708.

In the case of RRIRGRPPRLPRPRPRPTFEPRP, the “shrunken log2 fold change” value came out at 0.923.

For the sequence RRIRERPPRLPRPRPRPHKRPRP, the “shrunken log2 fold change” value was 3.62.

Consider RRIRDRPPRLPRPRPRPNHVPRP, for which the “shrunken log2 fold change” value is -0.242.

With RRIRTRPPRLPRPRPRPIPVPRP, the “shrunken log2 fold change” value was -0.412.

Consider RRIRTRPPRLPRPRPRPVVSPRP, for which the “shrunken log2 fold change” value is 0.075.

Turning to RRIRERPPRLPRPRPRPNEKPRP, the “shrunken log2 fold change” value is -0.0183.

For the sequence RRIRARPPRLPRPRPRPQKPPRP, the “shrunken log2 fold change” value was found to be 0.117.

For the sequence RRIRLRPPRLPRPRPRPHEFPRP, the “shrunken log2 fold change” value is -0.0833.

With RRIRWRPPRLPRPRPRPARDPRP, the “shrunken log2 fold change” value was 0.377.

Regarding RRIRYRPPRLPRPRPRPVKKPRP, the “shrunken log2 fold change” value was -0.0286.

Take RRIRMRPPRLPRPRPRPCVVPRP: the “shrunken log2 fold change” value was -0.0402.

Turning to RRIRNRPPRLPRPRPRPYMNPRP, the “shrunken log2 fold change” value is -0.207.

Consider RRIRKRPPRLPRPRPRPDSFPRP, for which the “shrunken log2 fold change” value is -0.115.

RRIRWRPPRLPRPRPRPFHKPRP: the “shrunken log2 fold change” value was -0.28.

With RRIRPRPPRLPRPRPRPLARPRP, the “shrunken log2 fold change” value came to 0.388.

RRIRVRPPRLPRPRPRPIFCPRP: the “shrunken log2 fold change” value was found to be 0.078.

RRIRDRPPRLPRPRPRPEKVPRP: the “shrunken log2 fold change” value is -0.00893.

Take RRIRCRPPRLPRPRPRPGSAPRP: the “shrunken log2 fold change” value was 0.148.
